In IntAct's records for PubMed 17911252:

B1: N-chimaerin (Homo sapiens), P15882-1 (parent)
chain: MALTLFDTDEYRPPVWKSYLYQLQQEAPHPRRITCTCEVENRPKYYGREFHGMISREAADQLLIVAEGSYLIRESQRQPGTYTLALRFGSQTRNFRLYYDGKHFVGEKRFESIHDLVTDGLITLYIETKAAEYIAKMTINPIYEHVGYTTLNREPAYKKHMPVLKETHDERDSTGQDGVSEKRLTSLVRRATLKENEQIPKYEKIHNFKVHTFRGPHWCEYCANFMWGLIAQGVKCADCGLNVHKQCSKMVPNDCKPDLKHVKKVYSCDLTTLVKAHTTKRPMVVDMCIREIESRGLNSEGLYRVSGFSDLIEDVKMAFDRDGEKADISVNMYEDINIITGALKLYFRDLPIPLITYDAYPKFIESAKIMDPDEQLETLHEALKLLPPAHCETLRYLMAHLKRVTLHEKENLMNAENLGIVFGPTLMRSPELDAMAALNDIRYQRLVVELLIKNEDILF

Variants of: B1
Conditions: with epha4_mouse Epha4, Q03137
Chain of epha4_mouse Epha4, Q03137 (Q03137 whole entry): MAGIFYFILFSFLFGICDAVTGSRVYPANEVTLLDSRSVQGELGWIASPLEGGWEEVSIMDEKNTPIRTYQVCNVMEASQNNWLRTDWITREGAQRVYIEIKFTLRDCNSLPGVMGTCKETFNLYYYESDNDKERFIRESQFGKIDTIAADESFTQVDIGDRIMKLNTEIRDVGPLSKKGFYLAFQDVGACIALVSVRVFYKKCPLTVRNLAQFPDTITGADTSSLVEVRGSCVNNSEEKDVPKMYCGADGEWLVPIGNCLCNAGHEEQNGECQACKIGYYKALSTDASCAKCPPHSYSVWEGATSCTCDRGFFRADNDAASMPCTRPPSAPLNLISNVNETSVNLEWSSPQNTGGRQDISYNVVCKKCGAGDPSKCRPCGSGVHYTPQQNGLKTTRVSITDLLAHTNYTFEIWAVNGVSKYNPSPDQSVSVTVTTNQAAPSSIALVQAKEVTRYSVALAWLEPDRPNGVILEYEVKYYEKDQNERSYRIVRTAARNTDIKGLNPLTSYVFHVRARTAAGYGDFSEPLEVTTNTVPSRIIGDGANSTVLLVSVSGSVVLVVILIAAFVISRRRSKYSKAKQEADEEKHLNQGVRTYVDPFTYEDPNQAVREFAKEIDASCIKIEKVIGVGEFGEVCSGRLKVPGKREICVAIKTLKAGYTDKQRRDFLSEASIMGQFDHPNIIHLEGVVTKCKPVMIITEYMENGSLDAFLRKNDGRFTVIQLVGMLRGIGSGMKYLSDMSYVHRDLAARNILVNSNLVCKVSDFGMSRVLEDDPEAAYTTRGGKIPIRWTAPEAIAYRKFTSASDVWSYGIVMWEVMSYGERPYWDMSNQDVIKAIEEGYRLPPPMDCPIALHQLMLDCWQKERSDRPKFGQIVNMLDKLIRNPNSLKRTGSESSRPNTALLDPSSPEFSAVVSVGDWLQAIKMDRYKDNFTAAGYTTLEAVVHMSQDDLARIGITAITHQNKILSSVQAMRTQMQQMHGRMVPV

Variant | effect of a mutation on the interaction
R56L | decreasing interaction strength
